Target: Toll-like Receptor 5 (UniProt O60602)
Test: cell-based or functional assay

Row | Binder | TLR activity (EC50, ng/ml); IL-8 secretion by HEK293 cells [ng/mL] | TLR5 activity (EC50, ng/ml); IL-8 secretion by HEK293 cells [ng/mL] | other results
1 | STF2.HA1-2mutHis(PR8), produced in Baculovirus (protein) AQVINTNSLSLLTQNNLNKSQSALGTAIERLSSGLRINSAKDDAAGQAIANRFTANIKGLTQASRNANDGISIAQTTEGALNEINNNLQRVRELAVQSANSTNSQSDLDSIQAEITQRLNEIDRVSGQTQFNGVKVLAQDNTLTIQVGANDGETIDIDLKQINSQTLGLDSLNVQKAYDVKDTAVTTKAYANNGTTLDVSGLDDAAIKAATGGTNGTASVTGGAVKFDADNNKYFVTIGGFTGADAAKNGDYEVNVATDGTVTLAAGATKTTMPAGATTKTEVQELKDTPAVVSADAKNALIAGGVDATDANGAELVKMSYTDKNGKTIEGGYALKAGDKYYAADYDEATGAIKAKTTSYTAADGTTKTAANQLGGVDGKTEVVTIDGKTYNASKAAGHDFKAQPELAEAAAKTTENPLQKIDAALAQVDALRSDLGAVQNRFNSAITNLGNTVNNLSEARSRIEDSDYATEVSNMSRAQILQQAGTSVLAQANQVPQNVLSLLASGSGSGSKGAAPLQLGKCNIAGWLLGNPECDPLLPVRSWSDIAETPNSENGICYPGDFIDYEELREQLSSVSSFERFEIFPKESSWPNHNTNGVTAACSHEGKSSFYRNLLWLTEKEGSYPKLKNSYVNKKGKEVLVLWGIHHPPNSKEQQNLYQNENAYVSVVTSNYNRRFTPEIAERPKVRDQAGRMNYYWTLLKPGDTIIFEANGNLIAPMYAFALSRGFGSGIITSHHHHHH | 900 | – | –
2 | STF2.HA1-3(PR8), produced in E. coli (protein) MAQVINTNSLSLLTQNNLNKSQSALGTAIERLSSGLRINSAKDDAAGQAIANRFTANIKGLTQASRNANDGISIAQTTEGALNEINNNLQRVRELAVQSANSTNSQSDLDSIQAEITQRLNEIDRVSGQTQFNGVKVLAQDNTLTIQVGANDGETIDIDLKQINSQTLGLDSLNVQKAYDVKDTAVTTKAYANNGTTLDVSGLDDAAIKAATGGTNGTASVTGGAVKFDADNNKYFVTIGGFTGADAAKNGDYEVNVATDGTVTLAAGATKTTMPAGATTKTEVQELKDTPAVVSADAKNALIAGGVDATDANGAELVKMSYTDKNGKTIEGGYALKAGDKYYAADYDEATGAIKAKTTSYTAADGTTKTAANQLGGVDGKTEVVTIDGKTYNASKAAGHDFKAQPELAEAAAKTTENPLQKIDAALAQVDALRSDLGAVQNRFNSAITNLGNTVNNLSEARSRIEDSDYATEVSNMSRAQILQQAGTSVLAQANQVPQNVLSLLANSENGICYPGDFIDYEELREQLSSVSSFERFEIFPKESSWPNHNTNGVTAACSHEGKSSFYRNLLWLTEKEGSYPKLKNSYVNKKGKEVLVLWGIHHPPNSKEQQNLYQNENAYVSVVTSNYNRRFTPEIAERPKVRDQAGRMNYYWTLLKPGDTIIFEANGNLIAPMYAFALSRG | – | 1.2 | –
3 | STF2.HA1-1His(PR8), produced in E. coli (protein) MAQVINTNSLSLLTQNNLNKSQSALGTAIERLSSGLRINSAKDDAAGQAIANRFTANIKGLTQASRNANDGISIAQTTEGALNEINNNLQRVRELAVQSANSTNSQSDLDSIQAEITQRLNEIDRVSGQTQFNGVKVLAQDNTLTIQVGANDGETIDIDLKQINSQTLGLDSLNVQKAYDVKDTAVTTKAYANNGTTLDVSGLDDAAIKAATGGTNGTASVTGGAVKFDADNNKYFVTIGGFTGADAAKNGDYEVNVATDGTVTLAAGATKTTMPAGATTKTEVQELKDTPAVVSADAKNALIAGGVDATDANGAELVKMSYTDKNGKTIEGGYALKAGDKYYAADYDEATGAIKAKTTSYTAADGTTKTAANQLGGVDGKTEVVTIDGKTYNASKAAGHDFKAQPELAEAAAKTTENPLQKIDAALAQVDALRSDLGAVQNRFNSAITNLGNTVNNLSEARSRIEDSDYATEVSNMSRAQILQQAGTSVLAQANQVPQNVLSLLASHNGKLCRLKGIAPLQLGKCNIAGWLLGNPECDPLLPVRSWSYIVETPNSENGICYPGDFIDYEELREQLSSVSSFERFEIFPKESSWPNHNTNGVTAACSHEGKSSFYRNLLWLTEKEGSYPKLKNSYVNKKGKEVLVLWGIHHPPNSKEQQNLYQNENAYVSVVTSNYNRRFTPEIAERPKVRDQAGRMNYYWTLLKPGDTIIFEANGNLIAPMYAFALSRGFGSGIITSNASMHECNTKCQTPLGAINSSLPYQNIHPVTIGECPKYVRHHHHHH | – | 0.2 | –
4 | STF2.HA1-2His(PR8), produced in Baculovirus (protein) AQVINTNSLSLLTQNNLNKSQSALGTAIERLSSGLRINSAKDDAAGQAIANRFTANIKGLTQASRNANDGISIAQTTEGALNEINNNLQRVRELAVQSANSTNSQSDLDSIQAEITQRLNEIDRVSGQTQFNGVKVLAQDNTLTIQVGANDGETIDIDLKQINSQTLGLDSLNVQKAYDVKDTAVTTKAYANNGTTLDVSGLDDAAIKAATGGTNGTASVTGGAVKFDADNNKYFVTIGGFTGADAAKNGDYEVNVATDGTVTLAAGATKTTMPAGATTKTEVQELKDTPAVVSADAKNALIAGGVDATDANGAELVKMSYTDKNGKTIEGGYALKAGDKYYAADYDEATGAIKAKTTSYTAADGTTKTAANQLGGVDGKTEVVTIDGKTYNASKAAGHDFKAQPELAEAAAKTTENPLQKIDAALAQVDALRSDLGAVQNRFNSAITNLGNTVNNLSEARSRIEDSDYATEVSNMSRAQILQQAGTSVLAQANQVPQNVLSLLASGSGSGSKGIAPQLGKCNIAGWLLGNPECDPLLPVRSWSYIVETPNSENGICYPGDFIDYEELREQLSSVSSFERFEIFPKESSWPNHNTNGVTAACSHEGKSSFYRNLLWLTEKEGSYPKLKNSYVNKKGKEVLVLWGIHHPPNSKEQQNLYQNENAYVSVVTSNYNRRFTPEIAERPKVRDQAGRMNYYWTLLKPGDTIIFEANGNLIAPMYAFALSRGFGSGIITSHHHHHH | 9 | – | –
5 | ngSTF2.HA1-2mutHis(PR8) (protein) AQVINTNSLSLLTQNNLQKSQSALGTAIERLSSGLRINSAKDDAAGQAIANRFTANIKGLTQASRNANDGISIAQTTEGALNEINNNLQRVRELAVQSAQSTNSQSDLDSIQAEITQRLNEIDRVSGQTQFNGVKVLAQDNTLTIQVGANDGETIDIDLKQINSQTLGLDSLNVQKAYDVKDTAVTTKAYANQGTTLDVSGLDDAAIKAATGGTQGTASVTGGAVKFDADNNKYFVTIGGFTGADAAKNGDYEVNVATDGTVTLAAGATKTTMPAGATTKTEVQELKDTPAVVSADAKNALIAGGVDATDANGAELVKMSYTDKNGKTIEGGYALKAGDKYYAADYDEATGAIKAKTTSYTAADGTTKTAANQLGGVDGKTEVVTIDGKTYQASKAAGHDFKAQPELAEAAAKTTENPLQKIDAALAQVDALRSDLGAVQNRFNSAITNLGNTVNQLSEARSRIEDSDYATEVSQMSRAQILQQAGTSVLAQANQVPQNVLSLLASGSGSGSKGAAPQLGKCNIAGWLLGNPECDPLLPVRSWSDIAETPNSENGICYPGDFIDYEELREQLSSVSSFERFEIFPKESSWPNHNTNGVTAACSHEGKSSFYRNLLWLTEKEGSYPKLKNSYVNKKGKEVLVLWGIHHPPNSKEQQNLYQNENAYVSVVTSNYNRRFTPEIAERPKVRDQAGRMNYYWTLLKPGDTIIFEANGNLIAPMYAFALSRGFGSGIITSHHHHHH | 9 | – | –
6 | STF2.HA1-2(PR8), produced in E. coli (protein) MAQVINTNSLSLLTQNNLNKSQSALGTAIERLSSGLRINSAKDDAAGQAIANRFTANIKGLTQASRNANDGISIAQTTEGALNEINNNLQRVRELAVQSANSTNSQSDLDSIQAEITQRLNEIDRVSGQTQFNGVKVLAQDNTLTIQVGANDGETIDIDLKQINSQTLGLDSLNVQKAYDVKDTAVTTKAYANNGTTLDVSGLDDAAIKAATGGTNGTASVTGGAVKFDADNNKYFVTIGGFTGADAAKNGDYEVNVATDGTVTLAAGATKTTMPAGATTKTEVQELKDTPAVVSADAKNALIAGGVDATDANGAELVKMSYTDKNGKTIEGGYALKAGDKYYAADYDEATGAIKAKTTSYTAADGTTKTAANQLGGVDGKTEVVTIDGKTYNASKAAGHDFKAQPELAEAAAKTTENPLQKIDAALAQVDALRSDLGAVQNRFNSAITNLGNTVNNLSEARSRIEDSDYATEVSNMSRAQILQQAGTSVLAQANQVPQNVLSLLAKGIAPLQLGKCNIAGWLLGNPECDPLLPVRSWSYIVETPNSENGICYPGDFIDYEELREQLSSVSSFERFEIFPKESSWPNHNTNGVTAACSHEGKSSFYRNLLWLTEKEGSYPKLKNSYVNKKGKEVLVLWGIHHPPNSKEQQNLYQNENAYVSVVTSNYNRRFTPEIAERPKVRDQAGRMNYYWTLLKPGDTIIFEANGNLIAPMYAFALSRGFGSGIITS | – | 0.15 | –
7 | STF2.HA1-2(PR8)mut (protein) MAQVINTNSLSLLTQNNLNKSQSALGTAIERLSSGLRINSAKDDAAGQAIANRFTANIKGLTQASRNANDGISIAQTTEGALNEINNNLQRVRELAVQSANSTNSQSDLDSIQAEITQRLNEIDRVSGQTQFNGVKVLAQDNTLTIQVGANDGETIDIDLKQINSQTLGLDSLNVQKAYDVKDTAVTTKAYANNGTTLDVSGLDDAAIKAATGGTNGTASVTGGAVKFDADNNKYFVTIGGFTGADAAKNGDYEVNVATDGTVTLAAGATKTTMPAGATTKTEVQELKDTPAVVSADAKNALIAGGVDATDANGAELVKMSYTDKNGKTIEGGYALKAGDKYYAADYDEATGAIKAKTTSYTAADGTTKTAANQLGGVDGKTEVVTIDGKTYNASKAAGHDFKAQPELAEAAAKTTENPLQKIDAALAQVDALRSDLGAVQNRFNSAITNLGNTVNNLSEARSRIEDSDYATEVSNMSRAQILQQAGTSVLAQANQVPQNVLSLLAKGAAPLQLGKCNIAGWLLGNPECDPLLPVRSWSDIAETPNSENGICYPGDFIDYEELREQLSSVSSFERFEIFPKESSWPNHNTNGVTAACSHEGKSSFYRNLLWLTEKEGSYPKLKNSYVNKKGKEVLVLWGIHHPPNSKEQQNLYQNENAYVSVVTSNYNRRFTPEIAERPKVRDQAGRMNYYWTLLKPGDTIIFEANGNLIAPMYAFALSRGFGSGIITS | – | 1.2 | –
8 | STF2.EIII+ (protein) MAQVINTNSLSLLTQNNLNKSQSALGTAIERLSSGLRINSAKDDAAGQAIANRFTANIKGLTQASRNANDGISIAQTTEGALNEINNNLQRVRELAVQSANSTNSQSDLDSIQAEITQRLNEIDRVSGQTQFNGVKVLAQDNTLTIQVGANDGETIDIDLKQINSQTLGLDSLNVQKAYDVKDTAVTTKAYANNGTTLDVSGLDDAAIKAATGGTNGTASVTGGAVKFDADNNKYFVTIGGFTGADAAKNGDYEVNVATDGTVTLAAGATKTTMPAGATTKTEVQELKDTPAVVSADAKNALIAGGVDATDANGAELVKMSYTDKNGKTIEGGYALKAGDKYYAADYDEATGAIKAKTTSYTAADGTTKTAANQLGGVDGKTEVVTIDGKTYNASKAAGHDFKAQPELAEAAAKTTENPLQKIDAALAQVDALRSDLGAVQNRFNSAITNLGNTVNNLSEARSRIEDSDYATEVSNMSRAQILQQAGTSVLAQANQVPQNVLSLLRKGNSKLEGQLEFPRTSMEKLQLKGTTYGVCSKAFKFLGTPADTGHGTVVLELQYTGTDGPCKVPISSVASLNDLTPVGRLVTVNPFVSVATANAKVLIELEPPFGDSYIVVGRGEQQINHHWHKSGSSIGK | – | – | TLR-5 EC50 (batch 052); IL-8 secretion by HEK293 cells: > 5000 ng/mL; TLR-5 EC50 (batch 054); IL-8 secretion by HEK293 cells: 1200 ng/mL; TLR-5 EC50 (batch 057); IL-8 secretion by HEK293 cells: 198 ng/mL
